System: TifA RB69 (phage RB69)
Assay: fluorescence polarization
Conditions: FP: 50 mM Tris-HCl pH 7.5, 150 mM NaCl, 1 mM DTT, 5% glycerol, 0.1 mg/ml BSA, 5 nM nucleic acid, 30 min at 37 C, SEC: 20 mM Tris-HCl pH 8.5, 50 mM NaCl

Row | Substance | Kd [nM]
1 | artJ RNA 15 nt | 2300
2 | artJ RNA 30 nt | 850
3 | artJ RNA 45 nt | 360

Reference: publication PMC10853763
